From patent US20100215684A1 (UNIVERSITY OF QUEENSLAND, published 2010) come the findings set out here.

The target in this assay is T1, Human fibrinogen (Sigma), biotinylated (human, UniProt P02671 20-629; P02675 31-491; P02679 27-437).
T1 construct: also called biotinylated fibrinogen
T1 sequence 1: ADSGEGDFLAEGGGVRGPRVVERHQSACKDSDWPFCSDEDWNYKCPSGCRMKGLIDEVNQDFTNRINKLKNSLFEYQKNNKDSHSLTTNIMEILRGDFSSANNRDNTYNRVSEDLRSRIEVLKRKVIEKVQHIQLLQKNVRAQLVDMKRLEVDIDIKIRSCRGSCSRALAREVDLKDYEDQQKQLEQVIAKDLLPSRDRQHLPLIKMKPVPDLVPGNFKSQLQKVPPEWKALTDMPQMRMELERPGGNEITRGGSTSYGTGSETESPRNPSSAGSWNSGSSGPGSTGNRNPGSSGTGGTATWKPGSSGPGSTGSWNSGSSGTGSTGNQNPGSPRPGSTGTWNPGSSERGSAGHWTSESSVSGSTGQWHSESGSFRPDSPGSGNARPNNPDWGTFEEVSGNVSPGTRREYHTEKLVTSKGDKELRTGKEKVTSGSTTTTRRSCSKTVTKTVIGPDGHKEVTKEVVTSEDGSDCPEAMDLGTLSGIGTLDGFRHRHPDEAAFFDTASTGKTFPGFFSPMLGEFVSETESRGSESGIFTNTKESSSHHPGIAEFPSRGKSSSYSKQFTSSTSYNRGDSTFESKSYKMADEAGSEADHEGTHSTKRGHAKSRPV
T1 sequence 2: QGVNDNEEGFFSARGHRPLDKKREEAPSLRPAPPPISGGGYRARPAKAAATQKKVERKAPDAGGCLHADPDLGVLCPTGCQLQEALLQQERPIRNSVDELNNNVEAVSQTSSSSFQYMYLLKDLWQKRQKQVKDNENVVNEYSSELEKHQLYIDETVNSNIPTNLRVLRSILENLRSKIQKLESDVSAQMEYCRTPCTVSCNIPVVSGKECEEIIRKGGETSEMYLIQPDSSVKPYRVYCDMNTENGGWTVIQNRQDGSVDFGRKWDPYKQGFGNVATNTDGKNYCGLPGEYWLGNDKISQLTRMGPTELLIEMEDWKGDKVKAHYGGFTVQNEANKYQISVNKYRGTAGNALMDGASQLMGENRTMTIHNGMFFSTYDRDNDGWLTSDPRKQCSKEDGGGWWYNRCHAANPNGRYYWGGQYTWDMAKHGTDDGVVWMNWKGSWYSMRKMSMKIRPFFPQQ
T1 sequence 3: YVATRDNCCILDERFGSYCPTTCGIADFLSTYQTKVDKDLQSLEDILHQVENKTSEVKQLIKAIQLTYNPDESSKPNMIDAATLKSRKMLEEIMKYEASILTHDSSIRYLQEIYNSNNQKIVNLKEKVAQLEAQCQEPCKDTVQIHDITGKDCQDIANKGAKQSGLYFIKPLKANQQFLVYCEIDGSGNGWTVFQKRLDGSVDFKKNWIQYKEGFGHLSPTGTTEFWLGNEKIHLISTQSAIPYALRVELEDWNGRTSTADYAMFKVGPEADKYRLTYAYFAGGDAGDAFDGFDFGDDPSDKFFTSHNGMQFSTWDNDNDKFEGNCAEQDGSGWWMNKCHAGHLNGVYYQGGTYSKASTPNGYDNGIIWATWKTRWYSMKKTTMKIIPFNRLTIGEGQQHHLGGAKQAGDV
The assay can be described thus: fibrinogen binding of expressed peptides (data not shown).

B1: S. iniae strain QMA136 M protein C-terminal amino acid sequence (309 amino acid peptide expressed from isolate QMA0136) (other)
chain: MAEIQEEANKKIAAVQTELENIDSENQSLSTANEQLKADLEQAARELDTLQSSYYTVENEKAELQKQLAEKDAKIAELEANNTELTATVADLTKALEAAKKEAEEKPALKAKVAELEKALAEAKGLGTKVAELEKDLEKAQAEAKDLETKLAETKAELEKVQAEKAELEATIEKMKKEHAEELDKLNALLADKEKLVEALNKEIEALKKDFDEKSNHSAQEKAKFQEELERLKKELAAKINMPMGNTKGMANAAGNAQTPANNGQNNAVKNQLPSTGDKAGNPFFTASAIAVMVGAGTLAYGRKRKEEE
notes: The expression construct is not described; also called QMA136 C-terminal fragment
On to B1, for which the binding result is “no binding”.
